Test results published in patent publication US20200399381A1 (I MAB BIOPHARMA US, published 2020).

T1: human IFNAR-1 protein (form not stated) (human, UniProt P17181 28-436, limits assumed)
T1 construct: bispecific ELISA
T1 sequence (looked up): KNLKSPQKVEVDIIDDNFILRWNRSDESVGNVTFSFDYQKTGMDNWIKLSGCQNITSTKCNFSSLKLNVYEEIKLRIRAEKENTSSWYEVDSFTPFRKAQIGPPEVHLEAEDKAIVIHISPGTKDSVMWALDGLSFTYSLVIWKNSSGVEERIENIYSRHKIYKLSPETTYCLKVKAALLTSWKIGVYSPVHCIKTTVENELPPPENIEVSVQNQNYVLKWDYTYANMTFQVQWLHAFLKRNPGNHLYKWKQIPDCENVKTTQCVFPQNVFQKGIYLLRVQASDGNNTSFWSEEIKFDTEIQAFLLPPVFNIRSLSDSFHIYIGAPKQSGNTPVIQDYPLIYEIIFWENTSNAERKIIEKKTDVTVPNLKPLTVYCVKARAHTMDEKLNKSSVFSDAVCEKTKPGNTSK

B1: 8G11-H2L1 (antibody, V domains shown)
VH: QVQLVQSGAEVVKPGASVKVSCKGSGFNIKDYYMHWVRQAPGQGLEWIGRIDPEDAETKYAPKFQGRVTMTADTSTSTVYMELSSLRSEDTAVYYCARGGNFYVMDYWGQGTLVTVSS
VL: DIQLTQSPSFLSASVGDRVTITCKASQNVGTNVVWYQQKPGKAPKLLIYSASYRVSGVPSRFSGSGSGTEFTLTISSLQPEDFATYYCQQKNNYPYTFGQGTKLEIK
notes: Humanized IgG expressed in HEK293; also called VH2 + VL1 (8G11)
B2: 8G11-H1L1 (antibody, V domains shown)
VH: QVQLVQSGAEVKKPGASVKVSCKASGFNIKDYYMHWVRQAPGQGLEWMGRIDPEDAETKYAPKFQGRVTMTRDTSTSTVYMELSSLRSEDTAVYYCARGGNFYVMDYWGQGTLVTVSS
VL: DIQLTQSPSFLSASVGDRVTITCKASQNVGTNVVWYQQKPGKAPKLLIYSASYRVSGVPSRFSGSGSGTEFTLTISSLQPEDFATYYCQQKNNYPYTFGQGTKLEIK
notes: Humanized IgG expressed in HEK293; also called VH1 + VL1 (8G11)
B3: 8G11-H2L2 (antibody, V domains shown)
VH: QVQLVQSGAEVVKPGASVKVSCKGSGFNIKDYYMHWVRQAPGQGLEWIGRIDPEDAETKYAPKFQGRVTMTADTSTSTVYMELSSLRSEDTAVYYCARGGNFYVMDYWGQGTLVTVSS
VL: DIQLTQSPSFLSTSVGDRVTITCKASQNVGTNVVWYQQKPGKSPKVLIYSASYRVSGVPSRFSGSGSGTEFTLIISSLQPEDFATYYCQQKNNYPYTFGQGTKLEIK
notes: Humanized IgG expressed in HEK293; also called VH2 + VL2 (8G11)
B4: 8G11-H4L3 (antibody, V domains shown)
VH: QVQLVQSGAEVVKPGASVKLSCKGSGFNIKDYYMHWVKQAPGQGLEWIGRIDPEDAETKYAPKFQGRATITADTSTSTAYLELSSLRSEDTAVYYCARGGNFYVMDYWGQGTLVTVSS
VL: DIQLTQSPSFLSTSVGDRVTITCKASQNVGTNVVWYQQKPGKSPKVLIYSASYRVSGVPSRFSGSGSGTEFTLIISSVQPEDFATYFCQQKNNYPYTFGQGTKLEIK
notes: Humanized IgG expressed in HEK293; also called VH4 + VL3 (8G11)
B5: 485G10-H1L3 (antibody, V domains shown)
VH: QVQLVQSGAEVKKPGASVKVSCKASGFNIKDYYIHWVRQAPGQGLEWMGRIDPEDAETKYAPKFQGRVTMTADTSISTAYMELSRLRSDDTVVYYCARYHGYWALDYWGQGTLVTVSS
VL: DIQMTQSPSSLSTSVGDRVTITCKTSQNVGTNVAWYQQKPGKAPKPLIYSTSYRYSGVPSRFSGSGSGTDFTLTISSVQPEDFATYYCHQYFSYPYTFGPGTKLDIK
notes: Humanized IgG expressed in HEK293; also called VH1 + VL3 (485G10)
B6: 485G10-H1L2 (antibody, V domains shown)
VH: QVQLVQSGAEVKKPGASVKVSCKASGFNIKDYYIHWVRQAPGQGLEWMGRIDPEDAETKYAPKFQGRVTMTADTSISTAYMELSRLRSDDTVVYYCARYHGYWALDYWGQGTLVTVSS
VL: DIQMTQSPSSLSTSVGDRVTITCKTSQNVGTNVAWYQQKPGKAPKPLIYSTSYRYSGVPSRFSGSGSGTDFTLTISSLQPEDFATYYCHQYFSYPYTFGPGTKVDIK
notes: Humanized IgG expressed in HEK293; also called VH1 + VL2 (485G10)

Columns and labels:
[1] = target: T1, human IFNAR-1 protein (form not stated); assay: affinity ranking of expressed humanized 8G11 IgGs (method not named)
[2] = target: T1, human IFNAR-1 protein (form not stated); assay: affinity measurement of purified IgG at different concentrations (method not named)
[3] = target: T1, human IFNAR-1 protein (form not stated); assay: affinity ranking of expressed humanized 485G10 IgGs (method not named)
[4] = target: T1, human IFNAR-1 protein (form not stated); assay: affinity measurement of purified IgG at different concentrations (method not named); remark: listed apart in the source

| Binder | Kd [1] [nM] | koff [1] [s⁻¹] | kon [1] [M⁻¹ s⁻¹] | Kd [2] [nM] | koff [2] [s⁻¹] | kon [2] [M⁻¹ s⁻¹] | Kd [3] [nM] | koff [3] [s⁻¹] | kon [3] [M⁻¹ s⁻¹] | Kd [4] [nM] | koff [4] [s⁻¹] | kon [4] [M⁻¹ s⁻¹] |
| --- | --- | --- | --- | --- | --- | --- | --- | --- | --- | --- | --- | --- |
| B1 | 0.439 | 8.84e-05 | 202000 | 0.403 | 9.24e-05 | 229000 | – | – | – | – | – | – |
| B2 | 0.662 | 9.83e-05 | 148000 | 1.36 | 0.000219 | 161000 | – | – | – | – | – | – |
| B3 | 0.328 | 9.42e-05 | 287000 | 0.419 | 0.000125 | 298000 | – | – | – | – | – | – |
| B4 | 0.284 | 8.52e-05 | 301000 | 0.22 | 7.47e-05 | 340000 | – | – | – | – | – | – |
| B5 | – | – | – | – | – | – | 0.325 | 0.000101 | 311000 | 1.24 | 0.000232 | 187000 |
| B6 | – | – | – | – | – | – | 0.652 | 0.000201 | 308000 | 1.55 | 0.000321 | 207000 |
